From PMC9876794 (2022) come the findings set out here.

Where only a bound is given, the exact number is not on record here.

Sequences and labels used below:
B1: D179 (antibody, V domains shown)
VH: EVQLVESGGGLVQPGRSLRLSCAASGFTFDDYAMHWVRQAPGKGLEWVSGISWNSGSIGYADSVKGRFTISRDNAKNSLYLQMNSLRAEDTALYYCAKGQIVGATSSDYGMDVWGQGTTVTVSS
VL: DIQMTQSPSSVSASVGDRVTITCRASQGISSWLAWYQQKPGKAPKLLIYAASSLQSGVPSRFSGSGSGTDFTLTISSLQPEDFATYYCQQANSFPYTFGQGTKLEIK
B2: C2692 (antibody, V domains shown)
VH: EVQLVESGGGLVQPGRSLRLSCAASGFTFDDYAMHWVRQAPGKGLEWVSGISWNSGSIGYADSVKGRFTISRDNAKNSLYLQMNSLRAEDTALYYCAKDIDTMVQGGEFYFDYWGQGTLVTVSS
VL: QSALTQPASVSGSPGQSITISCTGTSSDVGGYNYVSWYQQHPGKAPKLMIYDVSNRPSGVSNRFSGSKSGNTASLTISGLQAEDEADYYCSSYTSSSTVVFGGGTKLTVL
B3: D110 (antibody, V domains shown)
VH: EVQLLESGGGLVQPGGSLRLSCTASGFTFSNYAMNWVRQAPGQGLEWVSAISGSGYSTYYVDSAKGRFTISRDNSKNTLYLQMNSLRADDTAVFYCTKSTYYDNSGYYSVFDYWGQGTLVTVSS
VL: NFMLTQPHSVSESPGETVTISCTRSSGNIASKFVQWFQQRPGSSPTTVIYENNQRPSGVPDRFSGSIDSSSNSASLTISGLKTEDEADYYCQSSDSTNVVFGGGTKLTVL
B4: D116 (antibody, V domains shown)
VH: EVQLVESGGGLVLPGGSLRLSCVASGFTFSSYWMTWVRQAPGKGLEWVANIQRDGREKYYVDSLKGRFSISRDNDKNSLYLQMNNLRAEDTGVYYCARAQTCTTCSSPNWFDPWGQGTLVTVSS
VL: QSVLTQPASVSGSPGQSITISCTGTSSDVGSYNLVSWYQQHPGKAPKLIIYEGSKRPSGVSNRFSGSKSGNTASLTISGLQAEDEADYYCCSYAGSNTLVFGGGTKVTVL
B5: D175 (antibody, V domains shown)
VH: QLQLQESGPGLVKPSETLSLTCTVSGGSISSSSYYWGWIRQPPGKGLEWIGSIYYSGSTYYNPSLKSRVTISVDTSKNQFSLKLSSVTAADTAVYYCARGATYYYDSSGYYTPAPFDYWGQGTLVTVSS
VL: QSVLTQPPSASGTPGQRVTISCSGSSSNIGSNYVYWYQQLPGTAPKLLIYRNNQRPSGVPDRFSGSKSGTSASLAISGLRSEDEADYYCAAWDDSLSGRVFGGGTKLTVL
B6: D181 (antibody, V domains shown)
VH: QVQLQESGPGLVKPSQTLSLTCTVSGGSISSGGYYWSWIRQHPGKGLEWIGYIYYSGSTYYNPSLKSRVTISVDTSKNQFSLKLSSVTAADTAVYYCARDRMEIYYDSSGYHPGPFDYWGQGTLVTVSS
VL: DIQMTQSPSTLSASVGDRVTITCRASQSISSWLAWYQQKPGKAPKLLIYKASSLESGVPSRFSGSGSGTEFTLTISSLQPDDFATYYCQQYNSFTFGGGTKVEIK
B7: D139 (antibody, V domains shown)
VH: QVQLVESGGGVVQPGRSLRLSCAASGFTFSSYGMHWVRQAPGKGLEWVAVISYDGSNKYYADSVKGRFTISRDNSKNTLYLQMNSLRAEDTAVYYCAKMGGGVYCSGGSCYSSYFDYWGQGTLVTVSS
VL: AIQLTQSPSSLSASVGDRVTITCRASQGISSALAWYQQKPGKAPKLLIYDASSLESGVPSRFSGSGSGTDFTLTISSLQPEDFATYYCQQFNNYLPLTFGGGTKVEIK
B8: D135 (antibody, V domains shown)
VH: EVQLVESGGGLIQPGGSLRLSCAASGFTVSSNYMTWVRQAPGKGLEWVSLIYSGGSTYYTDSVKGRFTISRDNSKNTLYLQMNSLRAEDTAVYYCARLLITMVRGVISSGLDYWGQGTLVTVSS
VL: EIVLTQSPGTLSLSPGERATLSCRASQSVSSSYLAWYQQRPGQPPRLLIYGASSRATGIPDRFSDSGSGTDFTLTISRLEPEDFAVYYCQQYGSSPPITFGQGTRLDIK
B9: D185 (antibody, V domains shown)
VH: QVQLVQSGAEVKKPGSSVKVSCKASGGTFSSYAISWVRQAPGQGLEWMGGIIPIFGTANYAQKFQGRVTITADKSTSTAYMELSSLRSEDTAVYYCARAQQQLVQHGGYGMDVWGQGTTVTVSS
VL: QSVLTQPPSVSGAPGQRVTISCTGSSSNIGAGYDVHWYQQLPGTAPKLLIYGNSNRPSGVPDRFSGSKSGTSASLAITGLQAEDEADYYCQSYDSSLSAVVFGGGTKLTVL
B10: C2713 (antibody, V domains shown)
VH: QVQLVQSGAEVKKPGASVKVSCKASGYTFTSYYMHWVRQAPGQGLEWMGIINPSGGSTSYAQKFQGRVTMTRDTSTSTVYMELRSLRSEDTAVYYCARDRSSNYGMDVWGQGTTVTVSS
VL: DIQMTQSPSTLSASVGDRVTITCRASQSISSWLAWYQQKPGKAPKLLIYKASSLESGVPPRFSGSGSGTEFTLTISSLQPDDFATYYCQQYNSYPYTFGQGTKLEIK
B11: D090 (antibody, V domains shown)
VH: EVQLVESGGGLVQPGRSLRLSCAASGFTFDDYAMHWVRQAPGKGLEWVSGISWNSGSIGYADSVKGRFTISRDNAKNSLYLQMNSLRAEDMALYYCAKGLPYSSSWYDAFDIWGQGTMVTVSS
VL: not shown
B12: D119 (antibody, V domains shown)
VH: QLQLQESGPGLVKPSETLSLTCTVSGGSISSSSYYWGWIRQPPGKGLEWIGSIYYSGSTYYNPSLKSRVTISVDTSKNQFSLKLSSVTAADTAVYYCARLYSSGWYAFISWGQGTLVTVSS
VL: not shown
B13: D026 (antibody, V domains shown)
VH: EVQLVESGGGLVQPGRSLRLSCAASGFTFDDYAMHWVRQAPGKGLEWVSGISWNSGSIGYADSVKGRFTISRDNAKNSLYLQMNSLRAEDTALYYCAKDIHYDSSGLDYWGQGTLVTVSS
VL: not shown
B14: D134 (antibody, V domains shown)
VH: EVQLVESGGGVVQPGGSLRLSCAASGFTFDDYAMHWVRQAPGKGLEWVSLISGDGGSTYYADSVKGRFTISRDNSKNSLYLQMNSLRTEDTALYYCANGERGGNPRGGYYYYGMDVWGQGTTVTVSS
VL: EIVLTQSPATLSLSPGERATLSCRASQSVSSYLAWYQQKPGQAPRLLIYDASNRATGIPARFSGSGSGTDFTLTISSLEPEDFAVYYCQQRSNWPPYTFGQGTKLEIK
B15: D156 (antibody, V domains shown)
VH: EVQLLESGGGLAQPGGSLRLSCAASGFTFSSYAMSWVRQAPGKGLEWVSAISGSGGTYYADFVKGRFTISRDDSKNTLYLQINSLRAEDTAIYYCAKDGYGSGNYKLRYLELWGRGTLVTVSS
VL: QSVLTQPASVSGSPGQSITISCTGTSSDVGGYNYVSWYQQHPGKAPKFMIYDVSKRPSGVSNRFSGSKSGNTASLTISGLQAEDEADYYCFSYAGSLVFGGGTKLTVL
B16: D170 (antibody, V domains shown)
VH: QVQLVQSGAEVKKPGSSVKVSCKASGGTFSSYAISWVRQAPGQGLEWMGGIIPIFGTANYAQKFQGRVTITADESTSTAYMELSSLRSEDTAVYYCAREGGYCSGGSCSHYFDAFDIWGQGTMVTVSS
VL: QSALTQPASVSGSPGQSITISCTGTSSDVGSYNLVSWYQQHPGKAPKLMIYEGSKRPSGVSNRFSGSKSGNTASLTISGLQAEDEADYYCCSYAGSSTFWVFGGGTKLTVL
B17: D176 (antibody, V domains shown)
VH: QVQLVQSGAEVKKPGASVKVSCKASGYTFTSYDINWVRQATGQGLEWMGWMNPNSGNTGYAQKFQGRVTITRNTSISTAYMELSSLRSEDTAVYYCARGGSLMDVWGKGTTVTVSS
VL: QFVLTQPASVSGSPGQSITISCTGTSSDVGGYNYVSWYQQHPGKAPKLMIYDVSKRPSGVSNRFSGSKSGNTASLTISGLQAEDEADYYCSSYTSSSTFEVFGGGTKLTVL
B18: D011 (antibody, V domains shown)
VH: EVQLVESGGGLVQPGRSLRLSCAASGFTFDDYAMHWVRQAPGKGLEWVSGISWNSGSIGYADSVKGRFTISRDNAKNSLYLQMNSLRAEDTALYYCAKGDSSGYYFAYEDYGMDVWGQGTTVTVSS
VL: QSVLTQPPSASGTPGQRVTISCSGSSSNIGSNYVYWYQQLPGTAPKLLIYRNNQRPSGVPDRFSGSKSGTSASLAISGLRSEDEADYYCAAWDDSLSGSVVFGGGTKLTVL
B19: D153 (antibody, V domains shown)
VH: QVQLVQSGAEVKKPGASVKVSCKASGYTFTSYGISWVRQAPGQGLEWMGWISAYNGNTNYAQKLQGRVTMTTDTSTSTAYMELRSLRSDDTAVYYCARDFNDFWSGYWGYWGQGTLVTVSS
VL: QSALTQPPSASGSPGQSVTISCTGTSSDVGGYNYVSWYQQHPGKAPKLMIYEVSKRPSGVPDRFSGSKSGNTASLTVSGLQAEDEADYYCSSYAGSNNLVFGGGTKLTVL
B20: D133 (antibody, V domains shown)
VH: EVQLVESGGGLVQPGGSLRLSCAASGFTFSSYDMHWVRQATGKGLEWVSAIGTAGDTYYPGSVKGRFTISRENAKNSLYLQMNSLRAGDTAVYYCARGTTVSQQYPSGIPYYYGMDVWGQGTTVTVSS
VL: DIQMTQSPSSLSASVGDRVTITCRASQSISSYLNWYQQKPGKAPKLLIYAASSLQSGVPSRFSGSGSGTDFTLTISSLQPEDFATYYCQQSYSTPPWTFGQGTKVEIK
B21: D130 (antibody, V domains shown)
VH: EVQLVESGGGLVQPGRSLRLSCAASGFTFDDYAMHWVRQAPGKGLEWVSGISWNSGSIGYADSVKGRFTISRDNAKNSLYLQMNSLRAEDTALYYCAKSGLYGDYDAAFDYWGQGTLVTVSS
VL: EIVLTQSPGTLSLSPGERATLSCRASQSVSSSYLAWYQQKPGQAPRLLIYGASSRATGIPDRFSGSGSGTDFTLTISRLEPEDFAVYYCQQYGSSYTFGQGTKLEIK
B22: D151 (antibody, V domains shown)
VH: QVQLQQWGAGLLKPSETLSLTCAVYGGSFSGYYWSWIRQPPGKGLEWIGEINHDGDTNYNPSLKSRVTLSVDTSKNQFSLSLSSVTAADTAVYYCARRKQQQSYYYYSIDVWGQGTTVTVSS
VL: DIQMTQSPSSLSASVGDRVTITCRATQGIRNDLGWYQQKPGKAPKRLIYAASSLQSGVPSRFSGSGSGTEFTLTISSLQPEDFATYYCLQHSSYPLTFGGGTKVEIK
B23: C2725 (antibody, V domains shown)
VH: EVQLVESGGGLVQPGRSLRLSCAASGFTFDDYAMHWVRQAPGKGLEWVSGISWNSGSIGYADSVKGRFTISRDNAKNSLYLQMNSLRAEDTALYYCAKLSRGHYYDFKADSGDFDYWGQGTLVTVSS
VL: QSALTQPASVSGSPGQSITISCTGTSSDVGSYNLVSWYQQHPGKAPKLMIYEGSKRPSGVSNRFSGSKSGNTASLTISGLQAEDEADYYCCSYAGSSWVFGGGTKLTVL
B24: D087 (antibody, V domains shown)
VH: QVQLVQSGAEVKKPGASVKVSCKASGYTFTNYDFNWVRQAPGQGLEWMGWMNPNSGNTGYAQKFQGRVTITRNTSINTAYMELSSLRSEDTAVYYCARAPDCSSFSCSYYFDYWGQGTLVTVSS
VL: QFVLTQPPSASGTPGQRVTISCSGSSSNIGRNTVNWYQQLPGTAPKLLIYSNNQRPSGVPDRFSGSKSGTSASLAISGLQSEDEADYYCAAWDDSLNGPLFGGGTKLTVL
B25: D187 (antibody, V domains shown)
VH: QVQLVQSGAEVKKPGSSVKVSCKASGGTFSSYAISWVRQAPGQGLEWMGGIIPIFGTANYAQKFQGRVTITADESTSTAYMELSSLRSEDTAVYYCATRGWSGYQTMQKNAFDIWGQGTMVTVSS
VL: not shown

The assay addresses SARS-CoV-2 spike RBD (WT) (Severe acute respiratory syndrome …, UniProt P0DTC2). Description: ELISA. Also on record: unit not given here. A general note: An ELISA detects its analyte on a solid surface through an enzyme-linked reagent.
In turn, B1 had a binding score of 8900.
Consider B2, for which the binding score worked out at 1200.
B3 yielded a binding score of 2330.
For the molecule B4, the binding score is > 10000.
For B5, the binding score was > 10000.
With B6, the binding score was > 10000.
In the case of B7 it was 311; in that of B8, 1110.
On to B9, for which the binding score is > 10000.
In the case of B10 it was 4560.
The result for B11 reads > 10000.
For the molecule B12, the binding score is > 10000.
The result for B13 reads > 10000.
In the case of B14 it was > 10000; in that of B15, > 10000; in that of B16, 3050.
In the case of B17, the binding score was determined as 1430.
With B18, the binding score is > 10000.
The result for B19 reads > 10000.
The result for B20 reads > 10000.
With B21, the binding score is > 10000.
For B22, the binding score is > 10000.
With B23, the binding score came out at 230.
The result for B24 reads > 10000; that for B25, > 10000.
